Here are results for two molecules from paper PMC9381478, “A context-dependent and disordered ubiquitin-binding motif” (Cellular and Molecular Life Sciences: CMLS, 2022).

One series concerns the target T1, ubiquitin (Schizosaccharomyces pombe, UniProt P0CH06).
T1 construct: plasmid coding for S. pombe ubiquitin with an N-terminal 6xhistidine-tag, TEV-cleavage site as well as an N-terminal free cysteine; made in house; host or cells: E. coli BL21(DE3)
Put plainly: NMR titration of 15N-ubiquitin (1H-15N HSQC chemical shift perturbations). Format: binding, S. pombe. The conditions noted are these: ratio of Kd values for ubiquitin.

A short description of series [1]: Solubility noted during NMR sample preparation. In kind it is physicochemical. The conditions noted are these: NMR buffer; interaction mapped at 30 µM 15N-Spd1.

T1 sequence (P0CH06 1-76 limits assumed): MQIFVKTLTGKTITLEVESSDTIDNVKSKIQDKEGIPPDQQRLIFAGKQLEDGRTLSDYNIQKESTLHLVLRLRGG
Protocol for ubiquitin: For interaction of the peptides with ^15N-ubiquitin, the lyophilized peptides were dissolved in MilliQ water and pH adjusted to 7.5. […] For the titrations of ubiquitin with each peptide, except the WT Dss1 peptide, 100 µM ubiquitin in NMR buffer was measured as one end point, and the 1 mM peptide and 100 µM ubiquitin as the other. Then, the peptide sample was titrated into the ubiquitin sample with titration points at 0, 50, 150, 300, 400, 500 and 1000 µM peptide. […] NMR samples were centrifuged 13.000×g for 5 min and transferred to either single-use 5 mm NMR tubes (Bruker) or 3 mm (Shigemi). To prepare NMR samples of ^15 N-labeled ubiquitin with full-length Dss1 and variants, lyophilized proteins were dissolved directly in the NMR buffer. The variants were each dissolved in 510 µL NMR buffer with 100 µM ubiquitin. The concentration of Dss1 in the NMR sample was determined by measuring the absorbance at 280 nm on a ND-1000 NanoDrop spectrophotometer, calibrated with the NMR buffer with 100 µM ubiquitin. The concentration of Dss1 varied between variants, depending on the purification yield. For all titrations, seven points of varying Dss1 concentration were recorded. To prepare NMR samples of ^15N-labeled ubiquitin with Spd1, Spd1 was buffer exchanged to MilliQ using a 3 kDa cut-off Amicon Ultra-0.5 ml centrifugal filter (Merk Millipore), lyophilized and resuspended in NMR buffer with 100 µM ubiquitin. […] For experiments with ubiquitin, 200 µL 1 mM ubiquitin was buffer exchanged to MilliQ water using a 3 kDa cut-off Amicon Ultra-0.5 ml centrifugal filter (Merk Millipore), lyophilized, and subsequently resuspended in 100 µL NMR buffer with 1 mM Dss1 for a final ubiquitin concentration of 2 mM and 1 mM, respectively. All samples were transferred to 3 mm (Shigemi) NMR tubes.
All NMR spectra were recorded on Bruker Avance III HD 600 MHz spectrometer with a Bruker proton-optimized quadruple resonance NMR ‘inverse’ (QCI) cryoprobe, a Bruker Avance III HD 750 MHz spectrometer with a Bruker proton-optimized triple resonance NMR ‘inverse’ (TCI) cryoprobe and a Bruker Avance Neo 800 MHz spectrometer with a Bruker carbon/nitrogen-optimized triple-resonance NMR 'observe' (TXO) cryoprobe. […] All spectra were zero-filled, apodized using cosine bells in all dimensions, Fourier transformed, and the zero-order phase was corrected manually using either nmrDraw, a component of NmrPipe or qMDD if spectra were recorded using non-linear-sampling (NLS). All spectra were analysed using the Analysis software.
The CSPs were fitted to a one-site-binding model using global fit, and the Kd-values are extracted using Eq. 2.2 Δδobs=Δδmax∙Pt+Lt+Kd-Pt+Lt+Kd^2-4Pt∙Lt^1/2/2∙Pt.
Peaks giving rise to large uncertainties in the fit, either due to weak signals or overlap, were removed after a first iteration of fitting, and the fit repeated on the remaining dataset.

B1: full-length Dss1: recombinant full-length S. pombe Dss1 (N71C) (protein)
chain: MSRAALPSLENLEDDDEFEDFATENWPMKDTELDTGDDTLWENNWDDEDIGDDDFSVQLQAELKKKGVAAC
modifications: left off: His6-SUMO, N-terminal, cleaved
Consider B1, for which the “Kd of full-length protein lower than for the peptide alone” value with ubiquitin is about 10 times.

B2: Spd1: intrinsically disordered S. pombe protein, sequence printed in b198 (protein, UniProt Q10585 1-124, looked up)
chain: MHSSKRVMTTKTHVEQPESSMRPQLPESIQGSLMDVGMRVRKSISTGYKSKQTTFPAYNPPLYNTVSENIALKNTAFSYEPNGTKRPFEQAIPNYNWANPPQDFEEPEWLKPFDVVMEGTNERL
modifications: full-length
On to B2, for which, in series [1], the solubility result was “low solubility”.
